The source of these data is patent publication US20240327471A1, “IL-10 INDUCING POLYPEPTIDES AND USES THEREOF” (ENTEROME S.A., priority 2021, published 2024).

Assay [1] has as its system monocytes. The experiment in a line: IL-10 secretion from monocytes, NAT_29 sequence variants, co-stimulated with LPS (AlphaLISA). The class given is cell-based, human. The following applies: 1 μM; LPS 100 ng/ml; 24 h; monocytes from six donors. As to the method:
In order to investigate the impact of different sequence variations of NAT_29, monocytes from six donors were obtained as described in Example 3 and stimulated with 1 μM NAT_29 polypeptide (SEQ ID NO: 1) or a sequence variant thereof containing eight mutations (NAT_38; SEQ ID NO: 9), co-stimulated with 100 ng/ml LPS (NAT_38 comparison) from E. coli O111: B4 (InvivoGen, tlrl-eblps) and placed in humidified CO2 incubator at 5% CO2/37° C. for 24 h. IL-10 secretion was measured at 24 hours by AlphaLISA® on cell supernatants according to the supplier's protocol and read on an Envision plate reader (Perkin Elmer).
For comparison with NAT_29 (SEQ ID NO: 1), a polypeptide differing from the NAT_29 sequence by eight (8) amino acid positions was chosen (NAT_38; SEQ ID NO: 9). Namely, in SEQ ID NO: 9 • (i) 110 of SEQ ID NO: 1 is deleted, • (ii) D13 in SEQ ID NO: 1 is substituted with P (D13P), • (iii) a Q is added between R14 and G15 of SEQ ID NO: 1, • (iv) T16 in SEQ ID NO: 1 is substituted with Y (T16Y), • (v) K17 in SEQ ID NO: 1 is substituted with Q (K17Q), • (vi) S22 in SEQ ID NO: 1 is substituted with G (S22G), • (vii) an I is added between F25 and Y26 of SEQ ID NO: 1, and • (viii) P28 of SEQ ID NO: 1 is deleted.

In assay [2] the test system is CD14 depleted human peripheral blood mononuclear cells (PBMCs). The experiment in a line: IL-10 screening of microbiota protein library on CD14-depleted PBMCs (AlphaLISA). In kind it is cell-based. Conditions: second round of cell-free synthesis, 72 hours. The protocol: IL-10 screening of the microbiota protein library was performed on CD14 depleted human peripheral blood mononuclear cells (PBMCs). This cellular model was chosen to reduce the background due to cell wall components and other bacterial contaminants possibly present in the lysate of the Cell Free synthesis kit on the synthesised (but not purified) proteins.
PBMCs were isolated from buffy coats as follows: 80 ml PBS were added to 50 ml blood; 4 SepMate™-50 IVD tubes (Stemcell Technologies, Vancouver, Canada) were filled with 15 mL of Ficoll® (Ficoll® Paque Plus; Sigma-Aldrich, St. Louis, USA) per donor, then 30 ml of PBS-diluted blood were gently added. Samples were centrifuged for 20 min at 1200 g at room temperature and washed three times with PBS. To lyse the red blood cells, pellets were resuspended in Red Blood Cells Lysis buffer 1X (Miltenyi Biotec, Bergisch Gladbach, Germany) and incubated for 10 min at room temperature. Cells were then washed with MACS buffer and counted.
PBMC depletion was performed using the CD14 Microbeads kit (Miltenyi Biotec, Bergisch Gladbach, Germany) according to the supplier's protocol. […]
IL-10 secretion was measured by AlphaLISA® (IL10 (human) AlphaLISA Detection Kit; PerkinElmer, Waltham MA, USA) on the undiluted supernatants according to the supplier's protocol. Results were expressed as AlphaLISA® signal (Counts). […]

The subject of assay [3] is human PBMCs. Briefly: Dose-response of purified microbiota proteins, IL-10 secretion from total PBMCs (AlphaLISA). In kind it is cell-based. Conditions: 24 hours. The protocol: Before testing, the proteins were purified. In view thereof, CD14 depletion of PBMCs was not required, since the background induced by the residual contaminants present in the purified proteins is very low. Therefore, the cellular assays of Example 2 to characterize the purified proteins were performed on total PBMCs.
The selected proteins, were tested at concentrations of 0.5, 0.25, 0.1 and 0.025 μM (final concentration) on PBMCs. Cells were seeded in 384 well plates at 72,000 cells/well in a final volume of […] and stimulated with either the purified proteins (10% vol/vol) or the relative controls (positive and negative) for 24 hours in a humidified 5% CO2 atmosphere at 37° C. Samples were tested in duplicate on at least two different PBMCs donors. All the dilutions were made in PBS.
Secretion of IL-10 was measured by AlphaLISA and compared to those of PBS (negative control) and PHA at 10 μg/ml (positive control), essentially as described above.
A general note: Bead proximity is the source of the signal in Alpha formats.

With KKGSRSCFFYLPRQGYQKGSRGCFFIYL (NAT_38), the “IL-10 secretagogue activity compared with NAT_29” value in assay [1] is given as “IL-10 secretagogue activity was maintained”.

B1: ID3166: microbiota protein, 121 amino acids, 14 kDa, SEQ ID NO: 2 (protein)
chain: AFLFTSTGVPKKAAEAAFFLYLNKGTKKGSRSCFFIYLDRGTKKGSRSCFFYLPRQGYQKGSRGCFFIYLDRGTKKGSRGCFFIYLDCEKRAGNVCIRKCRGRYLHKKTPRRYRNAEATCS
modifications: ID3166
On to B1, for which the “IL-10 secretion from human PBMCs” value in assay [2] is reported as “able to stimulate IL-10 secretion from human PBMCs”. Also, in assay [3] (0.5, 0.25, 0.1 and 0.025 μM, PHA at 10 μg/ml), the “IL-10 secretion from PBMCs compared with PHA (positive control)” value is on record as “even more effective”. In addition, the “IL-10 secretion from PBMCs at the lowest dose tested” value in assay [3] (lowest dose 0.025 μM) is reported as “very high effectivity even at the lowest dose tested”.
